# According to patent US7754684B2, “Macromolecular platinum chelates” (priority 2003, dated 2010):
# Key:
# [1] = Table 2. Comparison of representative compounds C1-C13 of this invention versus carboplatin.
# Description: Table printed on a drawing sheet, FIGURE 15
# Title: Table 2. Comparison of representative compounds C1-C13 of this invention versus carboplatin.
# The patent's description of the figure: FIG. 15 is Table 2.
# First reader's note: Relative TGI is an in-vivo tumor growth inhibition class relative to carboplatin; C2, C3 and C5 are printed with 'Ama-Pt' (hyphen) instead of 'Ama=Pt'.
# [2] = Platinum release from PBS (percent small Pt species released from polymer-platinum conjugate); type: physicochemical; details: PBS at 37° C.
# Protocol: The compound tested comprised a poly(N-(2-hydroxypropyl)methacrylamide (90%)-co-(N-(linker)-Pt complex)methacrylamide (10%)) polymer and either cis-diammine or 1R,2R-diaminocyclohexane (DACH) as the stable ligands/chelate of the Pt complex. The leaving-ligand comprised an N,O bidentate ligand with amidoaspartate (Asp) or amidomalonate (Ama).
# The percent of small platinum species released over time was measured by dissolving about 30 mg of the polymer-platinum conjugate in 15 mL of phosphate buffered saline (10 mM phosphate, 123 mM Cl^−) and incubating the solution at 37° C. in a water bath. At indicated times, 2.0 mL aliquots were transferred to a centrifugal filter with a 3 kDa nominal molecular weight cutoff (Centricon YM-3 from Millipore) and spun until >1.5 mL of filtrate had accumulated. The timed filtrates and the original solution were analyzed for platinum by ICP-OES. The percent of small Pt species released was determined using the formula: ((ppm Pt in filtrate)/(ppm Pt in stock solution)) X 100.
# [3] = Maximum tolerated dosage used in the B16F10 murine melanoma model; type: in vivo, C57BL/6 mice; details: mice
# Protocol: C57BL/6 mice (10 animals per compound treatment group) were dosed with the amount of compound indicated. The mice were inoculated subcutaneously in the right rear flank with 10^6 B16F10 murine melanoma cells. Beginning at day 6 post-implantation, tumor size was measured daily using calipers under light Methfurane anesthesia. The mass of the resulting tumor in milligrams was estimated using the formula W^2(L)/2 where W is the length of the shorter tumor dimension and L is the length of the longer dimension. Treatment was commenced when the tumor was 50-75 mg or larger. Each animal was followed individually so that Day 1 of treatment for each animal was the day on which that animal's tumor reached the appropriate size. The test compounds were administered […] through the tail vein using a volume of 0.2-0.3 mL per 20 grams body weight. The animals were observed and weighed daily prior to dosing to establish the proper dosing volume for that day and such was continued until the end of the study. […]
# [4] = system: B16F10 murine melanoma cells; assay: B16F10 murine melanoma tumor growth inhibition in C57BL/6 mice; type: in vivo; details: each compound at its MTD (20 mgPt/kg vs. 50 mgPt/Kg), groups of ten mice
# Protocol: C57BL/6 mice (10 animals per compound treatment group) were dosed with the amount of compound indicated. The mice were inoculated subcutaneously in the right rear flank with 10^6 B16F10 murine melanoma cells. Beginning at day 6 post-implantation, tumor size was measured daily using calipers under light Methfurane anesthesia. The mass of the resulting tumor in milligrams was estimated using the formula W^2(L)/2 where W is the length of the shorter tumor dimension and L is the length of the longer dimension. Treatment was commenced when the tumor was 50-75 mg or larger. Each animal was followed individually so that Day 1 of treatment for each animal was the day on which that animal's tumor reached the appropriate size. The test compounds were administered […] through the tail vein using a volume of 0.2-0.3 mL per 20 grams body weight. The animals were observed and weighed daily prior to dosing to establish the proper dosing volume for that day and such was continued until the end of the study.
# Using the above procedure, a number of exemplary compounds of this invention were compared to carboplatin. […]
# [5] = Platinum release from PBS (percent small Pt species released from polymer-platinum conjugate); type: physicochemical
Substance,% Pt Release ([2]; 3 h) [%],% Pt Release ([2]; 24 h) [%],other results
"poly(HPMA)-GGG-Ama=Pt=1R, 2R-DACH [C13] [listing 1 of 2 here]",–,–,Pt release (% at 24 h) [1]: 3.6 % at 24 h
poly(HPMA)-GFLG-Asp=Pt(NH3)2 [60a],1.95,5.85,–
poly(HPMA)-GGGG-Ama=PtDACH [57b],0.972,3.173,–
p(HMPA)-GFLG-Ama=Pt=DACH [C2] [listing 1 of 2 here],–,–,maximum tolerated dosage (MTD) [3]: 50 mgPt/kg
"Poly(HPMA)-GG-Asp=Pt=1R,2R-DACH [54b]",3.20,10.68,–
"poly(HPMA)-GG-Ama=Pt=1R,2R-DACH [53b]",1.3,5.5,–
"poly(HPMA)-GGG-Ama=Pt=1R, 2R-DACH [C13] [listing 2 of 2 here]",–,–,"maximum tolerated dosage (MTD) [3]: 20 mgPt/kg; delay in tumor growth, C13 versus C2 (FIG. 14) [4]: prolonged delay in tumor growth compared to compound C2"
poly(HPMA)-GFLG-C3-Sulf-Ama=Pt(NH3)2 [75a],3.02,5.44,–
poly(HPMA)-GG-Ama=Pt(NH3)2 [53a],1.4,4.6,–
p(HMPA)-GFLG-Ama=Pt=DACH [C2] [listing 2 of 2 here],–,–,Pt release (% at 24 h) [1]: 2.6 % at 24 h
poly(HPMA)-GG-Asp=Pt(NH3)2 [54a],–,–,Pt release in PBS at 38.C ([5]; 3 hr): 3.92%; Pt release in PBS at 38.C ([5]; 24 hr): 11.02%
